Measurements from paper PMC11952106.

Experiments:
[1] = target: act-EaCDCL^S (proteolytically activated short CDC-like protein of Elizabethkingia anophelis) (Elizabethkingia anophelis); test: cryo-EM structure; membrane-inserted pore on POPC liposomes; act-EaCDCL^L (3.95 uM) then act-EaCDCL^S (7.9 uM) at 37°C; focused refinement, C30 symmetry, 2.87 Å
[2] = target: act-EaCDCL^S (proteolytically activated short CDC-like protein of Elizabethkingia anophelis) (Elizabethkingia anophelis); test: cryo-EM structure; prepore-like oligomer stacked on the inserted pore; act-EaCDCL^L (3.95 uM) then act-EaCDCL^S (7.9 uM) on POPC liposomes at 37°C; focused refinement, C30 symmetry, 3.13 Å

Q: “act-EaCDCL^S (proteolytically activated short CDC-like protein of Elizabethkingia anophelis) (domain or fragment)” was tested. Which stoichiometry N [1] did it give?
A: 30 subunits

Q: What about the stoichiometry N [2] of the same substance?
A: 30 subunits
